# Experimental data from patent US5780025A, “Compositions and methods for the synthesis and assay of enkephalinase” (Genentech, Inc., priority 1993, dated 1998).
# Assays:
# Assay in all cases: Fluorometric determination of kinetic parameters for hydrolysis of substrates by enkephalinase
# Assay type in all cases: biochemical, rat
# [1] = substrate: CC(=O)NCC(=O)N[C@@H](Cc1c[nH]c2ccccc12)C(=O)NCC(=O)O; conditions: other: peptides I and II: HPLC analysis of 1 hr incubations of 1 mM peptide with 200 ng (I) or 50 ng (II) enzyme; pH 7.4; 37.0 °C
# Experimental: (§1) Fluorescence measurements were made using a Perkin Elmer, model 650-10S spectrofluorometer, equipped with a temperature controlled cell-holder, maintained at 37° C. Two procedures were used. The first combined a 50 μl solution of dansylated peptide with 50 μl of purified rat kidney enkephalinase in 50 mM, pH 7.4 HEPES buffer, containing 0.1% Tween 20, yielding a substrate concentration from 1 μM to 1 mM. After 1 hour at 37° C., 500 μl of 0.1M EDTA were added to the tubes. The 600 μl mixture was transferred into a quartz cuvette, and fluorescence measured. For dansyl-Gly-Trp-Gly, the excitation wavelength was set at 280 nm and emission at 360 nm. For the two tyrosine containing peptides, the excitation wavelength was at 277 nm and emission at 315 nm. Both slits were set at 2 nm. Known amounts of Trp-Gly and Tyr-Gly, diluted in the same mixture (100 μl HEPES, Tween 20, 500 μl EDTA), were run in parallel as standards. The fluorescence in the incubation media could thus be related to the amounts of hydrolyzed substrates. The second procedure permitted continuous monitoring of the hydrolysis of the dansylated peptides. A 500 μl solution of substrate at appropriate concentration, in 50 mM, pH 7.4 HEPES buffer containing 0.1% Tween 20 was pipetted in a quartz cuvette, and allowed to equilibrate in the cell holder of the fluorimeter at 37° C. Ten μl of purified rat kidney enkephalinase was added and the increase in tryptophan or tyrosine fluorescence was continuously monitored (excitation=280 nm, emission=360 nm for tryptophan, excitation 277, emission 315 for tyrosine). To minimize oxidation of tryptophan the intensity of excitation was reduced by adjusting the fluorimeter shutter so that a 10^-4 M solution of tryptophan in water gave a fluorescence of 20.0 with excitation set at 280 nm, emission at 360 nm, both slits at 2 nm, and sensitivity at 0.1. Under these conditions, tryptophan fluorescence was stable for over 2 hr.
# (§2) The kinetic parameters for the hydrolysis of dansyl-Gly-Trp-Gly, dansyl-Gly-Tyr-Gly and Dansyl-Gly-Tyr-Gly-NH2 by purified rat kidney enkephalinase were measured by incubating increasing concentrations of the substrates with the enzyme and stopping the reaction by the addition of EDTA before fluorescence measurements were taken (Table 4).
# (§3) Km and kcat values for substrates III, IV and V were obtained by measuring the increase in tryptophan or tyrosine fluorescence after 1 hr. incubations of increasing concentrations of substrates (from 1 μM to 1 mM) with 1 ng purified enzyme at 37° C. The kcat values for these substrates and peptides I and II were also obtained by HPLC analysis of 1 hr. incubations of 1 mM peptides with 200 ng (substrate I), 50 ng (substrates II and V), or 10 ng (substrates III and IV) enzyme. The kcat values obtained by both methods for substrates III, IV and V were in close agreement.
# [2] = substrate: NCC(=O)N[C@@H](Cc1c[nH]c2ccccc12)C(=O)NCC(=O)O; conditions: other: peptides I and II: HPLC analysis of 1 hr incubations of 1 mM peptide with 200 ng (I) or 50 ng (II) enzyme; pH 7.4; 37.0 °C
# Experimental: as §1, §2, §3
# [3] = substrate: CN(C)c1cccc2c(S(=O)(=O)NCC(=O)N[C@@H](Cc3ccc(O)cc3)C(=O)NCC(=O)O)cccc12; conditions: other: fluorescence after 1 hr incubation, 1 μM to 1 mM substrate, 1 ng purified enzyme, 37° C., pH 7.4
# Experimental: as §1, §2, §3
# [4] = substrate: CN(C)c1cccc2c(S(=O)(=O)NCC(=O)N[C@@H](Cc3ccc(O)cc3)C(=O)NCC(N)=O)cccc12; conditions: other: fluorescence after 1 hr incubation, 1 μM to 1 mM substrate, 1 ng purified enzyme, 37° C., pH 7.4
# Experimental: as §1, §2, §3
# [5] = substrate: CN(C)c1cccc2c(S(=O)(=O)NCC(=O)N[C@@H](Cc3c[nH]c4ccccc34)C(=O)NCC(=O)O)cccc12; conditions: other: fluorescence after 1 hr incubation, 1 μM to 1 mM substrate, 1 ng purified enzyme, 37° C., pH 7.4
# Experimental: as §1, §2, §3
protein,measurement,setting,value
"purified rat kidney enkephalinase (Rattus norvegicus) (protein, Rat kidney enkephalinase was purified to apparent homogeneity; from tissue; host or cells: rat kidney (male rats, membrane fraction, Triton X-100 solubilised)) MGRSESQMDITDINAPKPKKKQRWTPLEISLSVLVLLLTIIAVTMIALYATYDDGICKSSDCIKSAARLIQNMDASAEPCTDFFKYACGGWLKRNVIPETSSRYSNFDILRDELEVILKDVLQEPKTEDIVAVQKAKTLYRSCINESAIDSRGGQPLLTLLPDIYGWPVASQNWEQTYGTSWTAEKSIAQLNSKYGKKVLINFFVGTDDKNSTQHIIHFDQPRLGLPSRDYYECTGIYKEACTAYVDFMISVARLIRQEQRLPIDENQLSLEMNKVMELEKEIANATTKPEDRNDPMLLYNKMTLAKLQNNFSLEINGKPFSWSNFTNEIMSTVNINIQNEEEVVVYAPEYLTKLKPILTKYSPRDLQNLMSWRFIMDLVSSLSRNYKESRNAFRKALYGTTSETATWRRCANYVNGNMENAVGRLYVEAAFAGESKHVVEDLIAQIREVFIQTLDDLTWMDAETKKKAEEKALAIKERIGYPDDIISNENKLNNEYLELNYKEEEYFENIIQNLKFSQSKQLKKLREKVDKDEWISGAAVVNAFYSSGRNQIVFPAGILQPPFFSARQSNSLNYGGIGMVIGHEITHGFDDNGRNFNKDGDLVDWWTQQSANNFKDQSQCMVYQYGNFTWDLAGGQHLNGINTLGENIADNGGIGQAYRAYQNYVKKNGEEKLLPGLDLNHKQLFFLNFAQVWCGTYRPEYAVNSIKTDVHSPGNFRIIGTLQNSAEFADAFHCRKNSYMNPERKCRVW",kcat,[1],3.63 s⁻¹
same,kcat,[2],0.883 s⁻¹
same,Km,[3],41 µM
same,kcat,[3],19.05 s⁻¹
same,kcat/Km,[3],467000 M⁻¹ s⁻¹
same,Km,[4],90 µM
same,kcat,[4],4.13 s⁻¹
same,kcat/Km,[4],50000 M⁻¹ s⁻¹
same,Km,[5],30 µM
same,kcat,[5],15 s⁻¹
same,kcat/Km,[5],500000 M⁻¹ s⁻¹
